In paper doi:10.1101/2023.12.19.572481 (bioRxiv, 2023):

Biological target: the molecule itself
Experiment: high-speed atomic force microscopy

B1: Recombinant Human Neuronal Pentraxin 1 Protein (NP1) (natural protein, UniProt Q15818 23-432, looked up)
chain: QDFGPTRFICTSVPVDADMCAASVAAGGAEELRSSVLQLRETVLQQKETILSQKETIRELTAKLGRCESQSTLDPGAGEARAGGGRKQPGSGKNTMGDLSRTPAAETLSQLGQTLQSLKTRLENLEQYSRLNSSSQTNSLKDLLQSKIDELERQVLSRVNTLEEGKGGPRNDTEERVKIETALTSLHQRISELEKGQKDNRPGDKFQLTFPLRTNYMYAKVKKSLPEMYAFTVCMWLKSSATPGVGTPFSYAVPGQANELVLIEWGNNPMEILINDKVAKLPFVINDGKWHHICVTWTTRDGVWEAYQDGTQGGSGENLAPYHPIKPQGVLVLGQEQDTLGGGFDATQAFVGELAHFNIWDRKLTPGEVYNLATCSTKALSGNVIAWAESHIEIYGGATKWTFEACRQIN
B1: binds.
